In patent US20240261333A1 (published 2024):

T1: SAMM50 (human, UniProt Q9Y512 1-469)
T1 construct: also called NP_056195.3
T1 sequence (looked up): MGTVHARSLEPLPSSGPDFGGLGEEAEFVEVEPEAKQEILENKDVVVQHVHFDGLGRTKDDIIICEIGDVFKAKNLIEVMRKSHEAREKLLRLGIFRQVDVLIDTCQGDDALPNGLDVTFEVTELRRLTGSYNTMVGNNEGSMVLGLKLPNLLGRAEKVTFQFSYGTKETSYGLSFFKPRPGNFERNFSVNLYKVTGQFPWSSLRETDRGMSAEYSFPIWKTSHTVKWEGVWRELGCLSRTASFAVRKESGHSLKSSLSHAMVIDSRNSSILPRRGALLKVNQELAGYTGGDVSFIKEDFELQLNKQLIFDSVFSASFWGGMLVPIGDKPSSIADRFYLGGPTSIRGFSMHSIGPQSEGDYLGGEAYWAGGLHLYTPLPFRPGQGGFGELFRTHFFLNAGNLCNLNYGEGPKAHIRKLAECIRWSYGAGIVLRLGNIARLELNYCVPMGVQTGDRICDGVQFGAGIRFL

T2: LYZ (UniProt P61626 19-148)
T2 construct: Protein found in the co-IP by mass spectrometry; also called NP_000230.1
T2 sequence (looked up): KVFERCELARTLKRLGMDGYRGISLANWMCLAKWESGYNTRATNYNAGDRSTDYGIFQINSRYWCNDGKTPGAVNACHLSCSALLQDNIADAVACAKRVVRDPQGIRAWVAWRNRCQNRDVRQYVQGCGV

B1: C-terminal FLAG tagged B3GNT2 (enzyme, human, UniProt Q9NY97 1-397, looked up)
chain: MSVGRRRIKLLGILMMANVFIYFIMEVSKSSSQEKNGKGEVIIPKEKFWKISTPPEAYWNREQEKLNRQYNPILSMLTNQTGEAGRLSNISHLNYCEPDLRVTSVVTGFNNLPDRFKDFLLYLRCRNYSLLIDQPDKCAKKPFLLLAIKSLTPHFARRQAIRESWGQESNAGNQTVVRVFLLGQTPPEDNHPDLSDMLKFESEKHQDILMWNYRDTFFNLSLKEVLFLRWVSTSCPDTEFVFKGDDDVFVNTHHILNYLNSLSKTKAKDLFIGDVIHNAGPHRDKKLKYYIPEVVYSGLYPPYAGGGGFLYSGHLALRLYHITDQVHLYPIDDVYTGMCLQKLGLVPEKHKGFRTFDIEEKNKNNICSYVDLMLVHSRKPQEMIDIWSQLQSAHLKC
notes: Overexpressed in cells and pulled down from the lysate with mouse anti-FLAG antibody; also called C-FLAG B3GNT2; C-term flag; not shown: C-terminal FLAG tag
B2: N-terminal FLAG tagged B3GNT2 (enzyme, human, UniProt Q9NY97 1-397, looked up)
chain: B1 chain
notes: FLAG-tagged ORF overexpressed in cells; bait of the anti-FLAG co-IP; also called N-FLAG B3GNT2; N-term FLAG; not shown: FLAG tag at the N-terminus

Columns and labels:
G3BP1 = target: T3, G3BP1 (human, UniProt Q13283 2-466); test: co-IP, anti-FLAG, lysate of cells with C-FLAG B3GNT2; mass spectrometry
T3 construct: also called NP_005745.1
T3 sequence (Q13283 2-466 limits assumed): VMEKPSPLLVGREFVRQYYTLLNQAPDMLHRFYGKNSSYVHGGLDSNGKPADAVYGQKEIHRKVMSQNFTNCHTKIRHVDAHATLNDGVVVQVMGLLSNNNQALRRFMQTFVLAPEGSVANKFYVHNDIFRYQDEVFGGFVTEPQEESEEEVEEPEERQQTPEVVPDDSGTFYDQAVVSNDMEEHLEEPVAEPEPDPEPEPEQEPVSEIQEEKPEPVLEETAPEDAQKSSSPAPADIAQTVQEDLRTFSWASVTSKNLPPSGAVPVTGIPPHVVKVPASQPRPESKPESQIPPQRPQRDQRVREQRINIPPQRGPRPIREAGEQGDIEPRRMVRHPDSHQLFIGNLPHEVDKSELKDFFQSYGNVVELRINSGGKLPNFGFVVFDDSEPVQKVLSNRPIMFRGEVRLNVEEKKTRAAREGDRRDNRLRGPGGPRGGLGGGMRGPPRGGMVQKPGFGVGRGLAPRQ
Experimental: (§1) Cells were plated in 10-cm cell culture dishes and grown to 60-80% confluency. For each condition, two biological replicates were harvested for co-IP. Cells were washed with PBS and 4 mL of lysis buffer (20 mM HEPES, 1% Triton X-100, 150 mM NaCl, 1 mM EDTA, and 10% glycerol) containing protease inhibitor cocktail was added. Cells were scraped and lysate was incubated at 4° C. under rotary agitation for 1 h. Lysate was centrifuged at 14,000×g for 10 min at 4° C. Supernatant was transferred to a new tube and an aliquot was taken as the input. […] For Western blots, 10 μg/mL Chicken Anti-FLAG (Aves labs ET-DY100) and IgY control (R&D Systems AB-101-C) antibodies were biotinylated (Thermo Fisher Scientific 90407) and added to the respective conditions. Lysates with antibodies were incubated at 4° C. under rotary agitation overnight. For each mL of lysate, 50 μL of Pierce Protein A/G Magnetic Beads (Mass spectrometry; Thermo Fisher Scientific 88803) or Pierce Streptavidin Magnetic Beads (Western blot; Thermo Fisher Scientific 88817) was washed twice with lysis buffer. Lysates with antibodies were added to the beads and incubated at 4° C. under rotary agitation for 4 h. Beads were washed with lysis buffer 3 times and resuspended in lysis buffer for storage.
(§2) Magnetic beads were resuspended in 100 mM Tris pH 7.8, reduced, alkylated and digested with trypsin at 37° ° C. overnight. This solution was subjected to solid phase extraction to concentrate the peptides and remove unwanted reagents followed by injection onto a Shimadzu HPLC with fraction collector. Eight fractions were collected and after concentration were injected on a Waters NanoAcquity HPLC equipped with a self-packed Aeris 3 μm C18 analytical column 0.075 mm by 20 cm, (Phenomenex). Peptides were eluted using standard reverse-phase gradients. The effluent from the column was analyzed using a Thermo Orbitrap Elite mass spectrometer (nanospray configuration) operated in a data dependent manner for 54 minutes. The resulting fragmentation spectra were correlated against the known database using Proteome Discover 1.4 (Thermo Fisher Scientific).

SAMM50 = target: T1, SAMM50; test: as above
Experimental: as §1, §2

HNRNPK = target: T4, HNRNPK (human, UniProt P61978-3 1-440, limits assumed); test: as above
T4 construct: also called NP_001305115.1 (+1)
T4 sequence (P61978 other isoform, or with tags, fused parts or gaps limits assumed): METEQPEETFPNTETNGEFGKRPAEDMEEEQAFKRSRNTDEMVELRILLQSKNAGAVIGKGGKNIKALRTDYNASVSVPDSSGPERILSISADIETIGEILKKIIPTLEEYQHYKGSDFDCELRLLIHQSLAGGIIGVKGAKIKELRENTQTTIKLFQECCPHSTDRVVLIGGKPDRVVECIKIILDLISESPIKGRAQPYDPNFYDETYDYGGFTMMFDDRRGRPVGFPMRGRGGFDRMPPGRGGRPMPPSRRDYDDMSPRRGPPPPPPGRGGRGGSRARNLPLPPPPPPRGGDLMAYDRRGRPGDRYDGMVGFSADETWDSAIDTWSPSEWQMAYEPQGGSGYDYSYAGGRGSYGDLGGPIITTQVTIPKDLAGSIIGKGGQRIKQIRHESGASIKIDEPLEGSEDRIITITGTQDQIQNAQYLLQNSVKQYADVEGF
Experimental: as §1, §2

MYH11 = target: T5, MYH11 (human, UniProt P35749-3 1-1945, limits assumed); test: as above
T5 construct: also called NP_001035202.1 (+4)
T5 sequence (P35749 other isoform, or with tags, fused parts or gaps limits assumed): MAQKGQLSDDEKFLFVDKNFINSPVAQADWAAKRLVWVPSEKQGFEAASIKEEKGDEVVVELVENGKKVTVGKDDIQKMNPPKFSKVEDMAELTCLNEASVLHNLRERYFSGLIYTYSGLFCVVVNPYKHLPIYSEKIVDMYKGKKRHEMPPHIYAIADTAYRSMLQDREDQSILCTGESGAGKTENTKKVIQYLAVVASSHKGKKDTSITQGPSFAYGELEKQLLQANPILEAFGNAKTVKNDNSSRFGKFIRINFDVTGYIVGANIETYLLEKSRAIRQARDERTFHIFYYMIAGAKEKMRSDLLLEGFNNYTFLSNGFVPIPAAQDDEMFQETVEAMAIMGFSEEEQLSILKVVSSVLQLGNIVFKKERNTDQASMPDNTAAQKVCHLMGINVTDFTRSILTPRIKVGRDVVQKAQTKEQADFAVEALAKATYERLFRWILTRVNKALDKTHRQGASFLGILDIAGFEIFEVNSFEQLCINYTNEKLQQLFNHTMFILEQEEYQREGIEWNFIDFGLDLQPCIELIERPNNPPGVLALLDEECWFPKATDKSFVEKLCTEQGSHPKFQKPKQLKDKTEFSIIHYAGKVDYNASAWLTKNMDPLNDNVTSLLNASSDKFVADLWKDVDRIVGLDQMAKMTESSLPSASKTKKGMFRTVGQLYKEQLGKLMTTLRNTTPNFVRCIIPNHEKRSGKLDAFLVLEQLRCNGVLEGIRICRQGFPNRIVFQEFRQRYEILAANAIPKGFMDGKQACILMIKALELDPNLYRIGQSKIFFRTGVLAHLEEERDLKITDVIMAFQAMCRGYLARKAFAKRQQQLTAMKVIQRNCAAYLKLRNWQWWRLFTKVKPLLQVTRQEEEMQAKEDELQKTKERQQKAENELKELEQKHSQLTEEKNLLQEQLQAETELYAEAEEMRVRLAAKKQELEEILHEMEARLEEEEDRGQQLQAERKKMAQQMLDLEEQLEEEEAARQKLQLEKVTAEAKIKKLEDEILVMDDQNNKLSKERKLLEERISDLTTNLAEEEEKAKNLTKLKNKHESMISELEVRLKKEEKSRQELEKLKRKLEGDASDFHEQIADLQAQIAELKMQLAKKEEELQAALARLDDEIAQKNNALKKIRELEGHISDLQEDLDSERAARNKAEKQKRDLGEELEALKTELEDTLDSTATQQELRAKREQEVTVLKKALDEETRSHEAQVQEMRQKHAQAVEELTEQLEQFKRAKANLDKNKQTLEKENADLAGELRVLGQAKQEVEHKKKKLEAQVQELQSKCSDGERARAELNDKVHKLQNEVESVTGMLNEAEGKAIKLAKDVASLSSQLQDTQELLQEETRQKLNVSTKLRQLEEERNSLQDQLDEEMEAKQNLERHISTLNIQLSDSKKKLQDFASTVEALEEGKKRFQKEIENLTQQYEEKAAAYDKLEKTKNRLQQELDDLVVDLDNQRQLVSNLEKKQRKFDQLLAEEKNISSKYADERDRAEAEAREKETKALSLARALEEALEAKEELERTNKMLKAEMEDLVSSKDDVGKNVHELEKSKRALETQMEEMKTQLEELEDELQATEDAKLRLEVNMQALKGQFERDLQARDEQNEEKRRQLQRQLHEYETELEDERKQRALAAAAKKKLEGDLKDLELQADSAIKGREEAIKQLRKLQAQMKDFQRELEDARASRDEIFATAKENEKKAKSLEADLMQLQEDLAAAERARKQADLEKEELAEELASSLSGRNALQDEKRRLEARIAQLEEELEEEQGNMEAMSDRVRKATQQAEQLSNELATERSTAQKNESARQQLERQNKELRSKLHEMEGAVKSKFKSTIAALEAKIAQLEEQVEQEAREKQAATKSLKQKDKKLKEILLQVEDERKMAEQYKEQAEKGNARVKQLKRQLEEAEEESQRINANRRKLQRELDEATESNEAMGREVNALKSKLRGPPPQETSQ
Experimental: as §1, §2

TPI1 = target: T6, TPI1 (UniProt P60174 2-249); test: co-IP with anti-FLAG, mass spectrometry; N-FLAG B3GNT2
T6 construct: Endogenous protein found in the co-IP by mass spectrometry; also called NP_000356.1 (+2)
T6 sequence (P60174 2-249 limits assumed): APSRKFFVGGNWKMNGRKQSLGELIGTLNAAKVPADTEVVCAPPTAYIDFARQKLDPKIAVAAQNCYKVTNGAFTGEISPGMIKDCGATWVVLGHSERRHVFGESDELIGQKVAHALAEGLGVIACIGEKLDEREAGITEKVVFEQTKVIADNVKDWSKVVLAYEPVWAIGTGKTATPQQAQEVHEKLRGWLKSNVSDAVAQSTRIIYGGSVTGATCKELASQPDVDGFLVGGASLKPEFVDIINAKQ

RPLP2 = target: T7, RPLP2 (UniProt P05387 1-115); test: as above
T7 construct: Endogenous protein found in the co-IP by mass spectrometry; also called NP_000995.1
T7 sequence (P05387 whole entry): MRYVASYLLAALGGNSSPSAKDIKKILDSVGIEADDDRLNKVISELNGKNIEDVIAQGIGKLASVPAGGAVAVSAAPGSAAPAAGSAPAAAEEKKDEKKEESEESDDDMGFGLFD

RPS15A = RPS15A (UniProt P62244 2-130); test: as above
RPL21 = RPL21 (UniProt P46778 2-160); test: as above
RPL31 = RPL31 (UniProt P62899 1-125); test: as above
LYZ = target: T2, LYZ; test: as above
RPL10A = RPL10A (UniProt P62906 2-217); test: as above
SLIRP = SLIRP (UniProt Q9GZT3 1-109); test: as above

Binder	co-IP mass spectrometry count (G3BP1)	co-IP mass spectrometry count (SAMM50)	co-IP mass spectrometry count (HNRNPK)	co-IP mass spectrometry count (MYH11)	co-IP mass spectrometry count (TPI1)	co-IP mass spectrometry count (RPLP2)	co-IP mass spectrometry count (RPS15A)	co-IP mass spectrometry count (RPL21)	co-IP mass spectrometry count (RPL31)	co-IP mass spectrometry count (LYZ)	co-IP mass spectrometry count (RPL10A)	co-IP mass spectrometry count (SLIRP)
B1	33	0	12	7	–	–	–	–	–	–	–	–
B2	–	–	–	–	3	6	3	8	0	3	6	0
